# Target: fibronectin (FN) from human plasma (human) (UniProt P02751)
# Chain of UniProt P02751 (P02751 32-2477): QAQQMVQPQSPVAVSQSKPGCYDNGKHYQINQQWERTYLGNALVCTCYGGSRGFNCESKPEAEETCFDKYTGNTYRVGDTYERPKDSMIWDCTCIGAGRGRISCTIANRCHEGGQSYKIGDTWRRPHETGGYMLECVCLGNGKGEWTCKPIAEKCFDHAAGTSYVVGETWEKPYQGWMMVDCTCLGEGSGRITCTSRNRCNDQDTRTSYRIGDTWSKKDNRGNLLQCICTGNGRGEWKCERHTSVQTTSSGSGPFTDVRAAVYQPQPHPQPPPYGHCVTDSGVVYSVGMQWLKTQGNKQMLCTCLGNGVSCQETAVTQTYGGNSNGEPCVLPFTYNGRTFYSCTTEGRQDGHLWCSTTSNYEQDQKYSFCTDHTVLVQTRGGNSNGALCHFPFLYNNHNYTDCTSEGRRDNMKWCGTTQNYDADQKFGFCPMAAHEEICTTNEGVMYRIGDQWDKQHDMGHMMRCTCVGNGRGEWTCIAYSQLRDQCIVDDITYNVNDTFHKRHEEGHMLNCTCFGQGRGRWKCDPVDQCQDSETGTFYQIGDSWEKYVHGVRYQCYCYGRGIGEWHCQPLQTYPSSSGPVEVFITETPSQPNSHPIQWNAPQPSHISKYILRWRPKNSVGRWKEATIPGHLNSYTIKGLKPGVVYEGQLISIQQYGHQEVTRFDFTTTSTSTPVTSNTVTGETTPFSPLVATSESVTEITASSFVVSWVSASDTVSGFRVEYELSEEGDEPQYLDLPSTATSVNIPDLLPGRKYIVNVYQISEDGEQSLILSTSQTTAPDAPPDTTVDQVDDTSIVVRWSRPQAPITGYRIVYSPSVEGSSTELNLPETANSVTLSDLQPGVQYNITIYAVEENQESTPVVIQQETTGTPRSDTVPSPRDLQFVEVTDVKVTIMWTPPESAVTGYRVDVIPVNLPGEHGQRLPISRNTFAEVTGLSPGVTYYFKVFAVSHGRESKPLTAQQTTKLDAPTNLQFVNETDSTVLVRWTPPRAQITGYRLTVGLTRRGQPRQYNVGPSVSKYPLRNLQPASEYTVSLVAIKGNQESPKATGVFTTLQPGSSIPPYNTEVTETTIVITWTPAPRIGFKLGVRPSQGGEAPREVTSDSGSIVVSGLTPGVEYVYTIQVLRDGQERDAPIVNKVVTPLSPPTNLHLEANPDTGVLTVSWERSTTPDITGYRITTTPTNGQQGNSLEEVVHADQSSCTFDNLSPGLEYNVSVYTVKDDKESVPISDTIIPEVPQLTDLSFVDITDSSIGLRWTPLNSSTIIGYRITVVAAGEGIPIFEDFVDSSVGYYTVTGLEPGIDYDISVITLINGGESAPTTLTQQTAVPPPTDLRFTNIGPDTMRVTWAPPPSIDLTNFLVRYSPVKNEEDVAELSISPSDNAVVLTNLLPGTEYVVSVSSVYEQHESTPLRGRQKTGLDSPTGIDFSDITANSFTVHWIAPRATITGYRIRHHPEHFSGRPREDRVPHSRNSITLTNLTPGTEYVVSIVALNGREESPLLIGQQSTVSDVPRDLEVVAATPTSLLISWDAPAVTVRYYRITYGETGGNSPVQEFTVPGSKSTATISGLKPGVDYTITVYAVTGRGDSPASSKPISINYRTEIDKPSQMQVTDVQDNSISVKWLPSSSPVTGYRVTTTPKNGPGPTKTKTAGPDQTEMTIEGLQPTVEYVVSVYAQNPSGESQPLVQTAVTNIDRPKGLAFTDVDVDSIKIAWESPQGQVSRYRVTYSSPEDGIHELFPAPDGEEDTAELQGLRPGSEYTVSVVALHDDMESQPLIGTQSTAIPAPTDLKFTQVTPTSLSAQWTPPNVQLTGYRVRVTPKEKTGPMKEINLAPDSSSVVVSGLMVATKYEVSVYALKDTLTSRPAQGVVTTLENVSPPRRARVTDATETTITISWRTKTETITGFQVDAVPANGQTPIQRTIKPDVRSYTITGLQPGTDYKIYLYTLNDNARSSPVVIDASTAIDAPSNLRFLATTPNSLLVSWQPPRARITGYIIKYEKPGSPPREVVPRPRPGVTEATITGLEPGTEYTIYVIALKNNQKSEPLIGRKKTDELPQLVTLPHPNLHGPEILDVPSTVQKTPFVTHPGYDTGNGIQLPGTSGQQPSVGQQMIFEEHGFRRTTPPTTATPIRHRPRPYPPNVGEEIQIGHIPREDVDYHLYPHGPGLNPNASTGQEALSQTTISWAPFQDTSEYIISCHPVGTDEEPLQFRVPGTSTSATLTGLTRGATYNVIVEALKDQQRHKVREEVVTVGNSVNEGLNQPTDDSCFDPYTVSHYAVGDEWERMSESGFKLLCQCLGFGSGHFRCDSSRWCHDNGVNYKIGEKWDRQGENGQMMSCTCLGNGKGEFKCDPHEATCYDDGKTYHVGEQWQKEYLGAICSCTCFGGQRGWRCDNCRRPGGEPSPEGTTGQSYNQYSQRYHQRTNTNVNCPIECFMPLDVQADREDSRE
binder,measurement,value
BMP-2 (bone morphogenetic protein 2) (ligand) QAKHKQRKRLKSSCKRHPLYVDFSDVGWNDWIVAPPGYHAFYCHGECPFPLADHLNSTNHAIVQTLVNSVNSKIPKACCVPTELSAISMLYLDENEKVVLKNYQDMVVEGCGCR,surface density of BMP-2 on PEA-FN,8 ng/cm2

# Source: article doi:10.1101/2022.07.28.501818
